Molecular target: the molecule itself
Assay: SEC-SAXS; 5-10 mg/ml protein in 10 mM DTT, 10 mM MgCl2, 0.5 M NaCl, 20 mM Tris pH 8; KW403-4F size-exclusion column, B21 beamline (Diamond Light Source); molecular mass from I(0)

B1: Escherichia coli RNase E N-terminal catalytic domain (domain or fragment)
chain: not shown
notes: also called EcRNase E NTD; E. coli RNase E NTD
B1 was tested, and the “stoichiometry N” value was 4.

Source: publication PMC6538622 (Scientific Reports, 2019)
